Data as given in IntAct's records for PubMed 16482218.

B1: Transcription factor Dp-2 (Mus musculus), Q64163-4 (parent)
chain: MIISTPQRIANSGSVLIGNPYTPAPAMVTQTHIAEAAGWVPSDRKRAREFIDSDFSESKRSKKGDKNGKGLRHFSMKVCEKVQRKGTTSYNEVADELVSEFTNSNNHLAADSAYDQENIRRRVYDALNVLMAMNIISSLPTGKKRNQVDCNSAQECQNLEIEKQRRIERIKQKRAQLQELLLQQIAFKNLVQRNRQNEQQNQGPPAVNSTIQLPFIIINTSRKTVIDCSISSDKFEYLFNFDNTFEIHDDIEVLKRMGMSFGLESGKCSLEDLKIARSLVPKALEGYITDISTGPSWLNQGLLLNSTQSVSNLDPTTGATVPQSSVNQGLCLDAEVALATGQLPASNSHQSSSAASHFSESRGETPCSFNDEDEEDEEEDPSSPE

Variants of: B1
Settings: with 1433e_mouse Ywhae

Row | effect of a mutation on the interaction | Variant
1 | disrupting interaction | S58A
2 | disrupting interaction | S61A
3 | disrupting interaction | S53A
4 | disrupting interaction | S56A
5 | disrupting interaction | S42A
